Key:
clock_mouse Clock [1] = target: clock_mouse Clock (UniProt O08785)
clock_mouse Clock [2] = target: clock_mouse Clock (UniProt O08785); remark: listed apart in the source
clock_mouse Clock [3] = target: clock_mouse Clock (UniProt O08785); remark: listed apart in the source

Chain of clock_mouse Clock (O08785 whole entry): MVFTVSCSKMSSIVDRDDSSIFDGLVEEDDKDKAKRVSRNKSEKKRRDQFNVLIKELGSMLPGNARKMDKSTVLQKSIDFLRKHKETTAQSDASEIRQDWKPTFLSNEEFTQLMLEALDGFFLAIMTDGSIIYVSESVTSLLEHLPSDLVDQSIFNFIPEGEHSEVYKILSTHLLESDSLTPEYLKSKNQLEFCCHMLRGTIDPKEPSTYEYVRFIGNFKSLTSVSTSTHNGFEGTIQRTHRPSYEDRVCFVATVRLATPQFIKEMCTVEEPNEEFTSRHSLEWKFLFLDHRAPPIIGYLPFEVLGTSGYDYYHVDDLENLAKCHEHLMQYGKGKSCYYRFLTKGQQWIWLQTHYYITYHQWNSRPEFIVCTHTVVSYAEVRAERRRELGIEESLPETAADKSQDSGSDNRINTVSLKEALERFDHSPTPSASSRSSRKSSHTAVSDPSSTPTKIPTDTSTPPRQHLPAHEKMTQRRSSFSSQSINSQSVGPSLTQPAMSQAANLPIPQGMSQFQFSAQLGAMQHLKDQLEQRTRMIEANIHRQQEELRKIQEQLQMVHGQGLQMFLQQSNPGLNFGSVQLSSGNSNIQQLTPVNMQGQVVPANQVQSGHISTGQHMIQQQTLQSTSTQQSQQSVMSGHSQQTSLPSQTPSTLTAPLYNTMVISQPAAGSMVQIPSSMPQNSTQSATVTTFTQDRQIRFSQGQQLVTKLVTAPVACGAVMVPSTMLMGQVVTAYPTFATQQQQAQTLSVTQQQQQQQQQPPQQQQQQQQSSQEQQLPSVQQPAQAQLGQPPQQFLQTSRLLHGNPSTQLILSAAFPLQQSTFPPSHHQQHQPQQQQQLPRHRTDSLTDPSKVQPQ
Chain of Basic helix-loop-helix ARNT-like protein 1 (Mus musculus), Q9WTL8-4 I317D (Q9WTL8 other isoform, or with tags, fused parts or gaps I317D): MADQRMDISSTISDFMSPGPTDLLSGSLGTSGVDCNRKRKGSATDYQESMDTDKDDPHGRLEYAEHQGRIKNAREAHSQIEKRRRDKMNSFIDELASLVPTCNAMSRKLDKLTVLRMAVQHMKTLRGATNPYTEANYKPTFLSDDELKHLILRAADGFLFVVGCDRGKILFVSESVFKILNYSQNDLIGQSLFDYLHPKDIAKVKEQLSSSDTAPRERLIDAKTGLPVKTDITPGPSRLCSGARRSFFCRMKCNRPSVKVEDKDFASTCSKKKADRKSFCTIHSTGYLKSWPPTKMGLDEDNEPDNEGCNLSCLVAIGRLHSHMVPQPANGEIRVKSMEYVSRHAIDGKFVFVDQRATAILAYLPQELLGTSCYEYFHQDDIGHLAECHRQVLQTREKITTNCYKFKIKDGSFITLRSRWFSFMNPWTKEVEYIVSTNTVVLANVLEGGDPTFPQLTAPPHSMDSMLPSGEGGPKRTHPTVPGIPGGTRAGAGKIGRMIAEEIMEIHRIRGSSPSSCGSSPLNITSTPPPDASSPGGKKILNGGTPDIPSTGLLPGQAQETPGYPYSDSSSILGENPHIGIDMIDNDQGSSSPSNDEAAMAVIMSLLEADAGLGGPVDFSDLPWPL
Chain of Basic helix-loop-helix ARNT-like protein 1 (Mus musculus), Q9WTL8-4 L95E;L150E;W427A (Q9WTL8 other isoform, or with tags, fused parts or gaps L95E;L150E;W427A): as the sequence (Q9WTL8 other isoform, or with tags, fused parts or gaps I317D) above
Chain of Basic helix-loop-helix ARNT-like protein 1 (Mus musculus), Q9WTL8-4 W427A (Q9WTL8 other isoform, or with tags, fused parts or gaps W427A): as the sequence (Q9WTL8 other isoform, or with tags, fused parts or gaps I317D) above
Chain of Basic helix-loop-helix ARNT-like protein 1 (Mus musculus), Q9WTL8-4 F423R (Q9WTL8 other isoform, or with tags, fused parts or gaps F423R): as the sequence (Q9WTL8 other isoform, or with tags, fused parts or gaps I317D) above
Chain of Basic helix-loop-helix ARNT-like protein 1 (Mus musculus), Q9WTL8-4 F423R;V435R (Q9WTL8 other isoform, or with tags, fused parts or gaps F423R;V435R): as the sequence (Q9WTL8 other isoform, or with tags, fused parts or gaps I317D) above
Chain of Basic helix-loop-helix ARNT-like protein 1 (Mus musculus), Q9WTL8-4 V435R (Q9WTL8 other isoform, or with tags, fused parts or gaps V435R): as the sequence (Q9WTL8 other isoform, or with tags, fused parts or gaps I317D) above
Chain of Basic helix-loop-helix ARNT-like protein 1 (Mus musculus), Q9WTL8-4 L95E (Q9WTL8 other isoform, or with tags, fused parts or gaps L95E): as the sequence (Q9WTL8 other isoform, or with tags, fused parts or gaps I317D) above
Chain of Basic helix-loop-helix ARNT-like protein 1 (Mus musculus), Q9WTL8-4 L150E (Q9WTL8 other isoform, or with tags, fused parts or gaps L150E): as the sequence (Q9WTL8 other isoform, or with tags, fused parts or gaps I317D) above
Chain of Basic helix-loop-helix ARNT-like protein 1 (Mus musculus), Q9WTL8-4 L115E (Q9WTL8 other isoform, or with tags, fused parts or gaps L115E): as the sequence (Q9WTL8 other isoform, or with tags, fused parts or gaps I317D) above

Row | Substance | effect of a mutation on the interaction (clock_mouse Clock [1]) | effect of a mutation on the interaction (clock_mouse Clock [2]) | effect of a mutation on the interaction (clock_mouse Clock [3])
1 | Basic helix-loop-helix ARNT-like protein 1 (Mus musculus), Q9WTL8-4 V435R | with no effect | disrupting interaction strength | 
2 | Basic helix-loop-helix ARNT-like protein 1 (Mus musculus), Q9WTL8-4 L150E | with no effect |  | decreasing interaction strength
3 | Basic helix-loop-helix ARNT-like protein 1 (Mus musculus), Q9WTL8-4 W427A | decreasing interaction strength | with no effect | 
4 | Basic helix-loop-helix ARNT-like protein 1 (Mus musculus), Q9WTL8-4 L95E | disrupting interaction strength | with no effect | 
5 | Basic helix-loop-helix ARNT-like protein 1 (Mus musculus), Q9WTL8-4 I317D | disrupting interaction strength | decreasing interaction strength | 

Results, then the substance that gave them:

Row | effect of a mutation on the interaction (clock_mouse Clock [1]) | effect of a mutation on the interaction (clock_mouse Clock [2]) | effect of a mutation on the interaction (clock_mouse Clock [3]) | Substance
6 | disrupting interaction strength | disrupting interaction strength |  | Basic helix-loop-helix ARNT-like protein 1 (Mus musculus), Q9WTL8-4 L95E;L150E;W427A
7 | with no effect | decreasing interaction strength |  | Basic helix-loop-helix ARNT-like protein 1 (Mus musculus), Q9WTL8-4 F423R
8 | disrupting interaction strength |  |  | Basic helix-loop-helix ARNT-like protein 1 (Mus musculus), Q9WTL8-4 L115E
9 | decreasing interaction strength | disrupting interaction strength |  | Basic helix-loop-helix ARNT-like protein 1 (Mus musculus), Q9WTL8-4 F423R;V435R
